Test results as given in US5352772A, “75 Kilodalton interleukin-2 receptor proteins and their uses” (The Trustees of Dartmouth College, priority 1986, dated 1994).

Assay: IL-2 binding affinity of the separate receptor chains
Design: species or system human
Details: read-out: Kd of the chain for IL-2; each chain expressed separately
Experimental: Monoclonal antibodies reactive with the Tac epitope were made available by Dr. Ellis Reinherz (1HT4; IgG2a Dana-Farber Cancer Center, Boston Mass.). IL-2 and anti-Tac ware radioiodinated using lactoperoxidase-glucose oxidase (Enzymobeads, Biorad, Richmond, Calif.) according to the manufacturer's instructions. The specific activity of anti-Tac was 5.3×10^4 CPM/pmole. […] Binding of both ligands to whole cells was performed, as described in Robb et al., Vol 154 J. Exp. Med., p. […] After 20-min incubation at 37° C., the tubes were centrifuged (8,500×g, 80s), the tips of the tubes containing the cell pellet were severed and the cell-bound and free radioactivity were determined by solid scintillation counting. The calculated values for the number of binding sites per cell were derived by Scatchard analysis of equilibrium binding data after subtraction of nonspecific binding determined in the presence of 150-fold molar excess of unlabeled ligand. […]
Particularly convincing in this regard is the finding that the chain present in limiting amounts dictates the number of high affinity receptors, and either α or β chains can function in this role. […] In contrast, YT cells express […] in excess, and high affinity receptors are detected only when the cells are induced to express β chains.

B1: β chain: previously isolated 55,000 dalton IL-2 receptor protein bearing the Tac epitope (protein, UniProt P01589 22-272, looked up)
Interleukin-2 receptor …: ELCDDDPPEIPHATFKAMAYKEGTMLNCECKRGFRRIKSGSLYMLCTGNSSHSSWDNQCQCTSSATRNTTKQVTPQPEEQKERKTTEMQSPMQPVDQASLPGHCREPPPWENEATERIYHFVVGQMVYYQCVQGYRALHRGPAESVCKMTHGKTRWTQPQLICTGEMETSQFPGEEKPQASPEGRPESETSCLVTTTDFQIQTEMAATMETSIFTTEYQVAVAGCVFLLISVLLLSGLTWQRRQRKSRRTI
Kd: 10 nM
